Experimental data published in the supplement of paper PMC10724198.
± gives the standard deviation of the averaged measurements.

Test system: Saccharomyces cerevisiae
Assay: protein stability index of tFT-peptide fusion (C-terminal peptide) (PSI (0-1 scale)); higher = more stable (slower turnover)
Conditions: genetic background: wild type; temperature: 30 C
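Further: PSI is a weighted mean of sequencing reads over stability bins, variants kept only with over 10 reads, mCherry proximal and sfGFP distal, peptide attached via GGGS linker.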

| Sequence | protein stability index |
| --- | --- |
| ACSTALPFSFAS | 0.689 ± 0.0074 |
| NQTVEQPLPTSL | 0.708 ± 0.042 |
| SPRLSAPPPPPP | 0.6766 ± 0.0046 |
| PPPAPPPPPPLP | 0.7026 ± 0.0022 |
| VLGGGPSIRGLM | 0.655 ± 0.027 |
| PPPRSLPPISPV | 0.623 ± 0.02 |
| NQDIKAENTIKL | 0.668 ± 0.057 |
| ENVAKKEKITKK | 0.694 ± 0.02 |
| DENLYGGFRTSM | 0.725 ± 0.0078 |
| GGGGGGVRWASG | 0.707 ± 0.051 |
| AVGPLTGPRPPV | 0.699 ± 0.073 |
| GPVAYSMDILVE | 0.66 ± 0.058 |
| PVLYWHSYRLCR | 0.65 ± 0.008 |
| GVVMLSDDGSAW | 0.718 ± 0.026 |
| GWWAVSRSGCCC | 0.693 ± 0.015 |
| FAPVPPRATFSH | 0.691 ± 0.022 |
| AVLTLRAPPSAL | 0.708 ± 0.025 |
| LHSPPLPFTPSP | 0.613 ± 0.041 |
| CPPPPPRPPLPP | 0.689 ± 0.056 |
| NIIRGVIAGNPA | 0.747 ± 0.026 |
| AGVGLAETAGDD | 0.677 ± 0.016 |
| FSLGQCLFGLWV | 0.612 ± 0.026 |
| GSVSGCVGVMRG | 0.641 ± 0.01 |
| IQKIKYKRKYIK | 0.73 ± 0.027 |
| REWRLVTCSDCL | 0.668 ± 0.023 |
| GEEEGSQGGCEV | 0.6611 ± 0.0061 |

| Sequence | protein stability index |
| --- | --- |
| RGARPRTPPSPP | 0.713 ± 0.03 |
| PSLPPPFPPLRP | 0.7044 ± 0.0013 |
| RAIGREGILHRA | 0.693 ± 0.094 |
| KCVDSREKITMD | 0.672 ± 0.072 |
| DHVSTVEQKLFF | 0.701 ± 0.031 |
| RRPLAPHPPLPP | 0.678 ± 0.01 |
| PSQWLPSRSRTA | 0.733 ± 0.052 |
| CYLSVGVASWNS | 0.6816 ± 0.0026 |
| RILIRVQSSKLR | 0.671 ± 0.09 |
| PRPPNPRPPPPP | 0.729 ± 0.071 |
| FPHRHAPYPSAI | 0.7 ± 0.035 |
| VGVLCWLFLGVG | 0.501 ± 0.008 |
| STVTSGCLKRIS | 0.723 ± 0.03 |
| CMEYFMHFVKGD | 0.701 ± 0.06 |
| VGVFRCLPGQVG | 0.677 ± 0.057 |
| ASPAIDSETSEY | 0.686 ± 0.16 |
| QCGAWLKFTCHV | 0.636 ± 0.058 |
| WEGVGERVGGGA | 0.638 ± 0.017 |
| CDRVIGSRGVTY | 0.688 ± 0.0071 |
| LVPDGFMLALKE | 0.686 ± 0.038 |
| PGALILSNRFFS | 0.685 ± 0.041 |
| LYIPQKRGLSLH | 0.62 ± 0.021 |
| GSNMTQAMTAGG | 0.656 ± 0.027 |
| ALGRWAVSCNRG | 0.71 ± 0.11 |
| GARGLVGHWRRG | 0.615 ± 0.035 |
| YRFSKELEQKGQ | 0.68281 ± 0.0003 |

| Sequence | protein stability index |
| --- | --- |
| KTGLMRGHEVAS | 0.673 ± 0.03 |
| LAMALRGGLYFS | 0.701 ± 0.011 |
| ESAGPSIYKLVT | 0.638 ± 0.0092 |
| EFTGVYLWERGW | 0.7 ± 0.041 |
| AACNGGPMNQTR | 0.7 ± 0.086 |
| RRRRSITEHRSS | 0.69279 ± 0.00018 |
| GPCFPRRSAPSD | 0.67 ± 0.046 |
| SLPLSSALFPPL | 0.72 ± 0.076 |
| TPPACTRIPPAN | 0.777 ± 0.12 |
| VRRFRYCLGFFR | 0.663 ± 0.059 |
| KEVDGRALVAEE | 0.655 ± 0.035 |
| CLFPPTARHSFP | 0.778 ± 0.036 |
| GVEGDPESKGRV | 0.696 ± 0.068 |
| RCYSFTKIRNNL | 0.718 ± 0.13 |
| ASFMSPPSAPLA | 0.6953 ± 0.0047 |
| LTLPSDSSALPA | 0.748 ± 0.03 |
| RRKGVAGKWARR | 0.586 ± 0.058 |
| VAWAGRGPGRSG | 0.713 ± 0.024 |
| AGSRGIVREIVL | 0.68 ± 0.052 |
| GWLGFVGGVRVQ | 0.685 ± 0.0063 |
| ASPLYPRPPVRG | 0.651 ± 0.014 |
| DPQQRSNPKPII | 0.661 ± 0.032 |
| RCGGGKWGRGAE | 0.69683 ± 0.00067 |
| DRPNIGIKPKRA | 0.613 ± 0.086 |
| TKSPYLTVNETA | 0.686 ± 0.055 |
| NFAFPWTSTHAF | 0.699 ± 0.017 |

| Sequence | protein stability index |
| --- | --- |
| NFLVNGRASLKV | 0.583 ± 0.016 |
| VGFCFDGVHFRA | 0.639 ± 0.016 |
| PPSVILTSASSR | 0.721 ± 0.011 |
| PLPPPPARLPSP | 0.703 ± 0.017 |
| SLLPQSAGRRPH | 0.666 ± 0.063 |
| CVLPVSVIWVLR | 0.575 ± 0.018 |
| RKNENKKKKNKK | 0.702 ± 0.012 |
| GWSGCNWCIGVG | 0.584 ± 0.018 |
| PLFLLPSSPPAS | 0.757 ± 0.06 |
| SPSVRSPFSLPP | 0.7383 ± 0.0052 |
| PLPALPPPPRGP | 0.636 ± 0.026 |
| PPPPPPPLPPFT | 0.681 ± 0.015 |
| PPPSHLHLPSPA | 0.53 ± 0.0095 |
| CEAWLTDEGLRD | 0.742 ± 0.016 |
| LSVAYSDIIVRC | 0.554 ± 0.0065 |
| RDCSGGRRGLER | 0.601 ± 0.023 |
| PPPPRPSPPSLP | 0.676 ± 0.0058 |
| SVYLKLSECRSV | 0.6877 ± 0.0018 |
| GTRGVFEVCMDG | 0.704 ± 0.025 |
| FFSRSPVFSFDF | 0.8218 ± 0.0017 |
| VYFLRLERVPSF | 0.696 ± 0.017 |
| TRRFGSIINWVG | 0.59 ± 0.065 |
| VVVFPYCPLPLV | 0.597 ± 0.076 |
| VRNPPPLTRTRP | 0.687 ± 0.0097 |
| SDKDIYQRLSYE | 0.643 ± 0.036 |
| LPSPALSRSDPT | 0.729 ± 0.031 |

| Sequence | protein stability index |
| --- | --- |
| KKNEEKRRGEGK | 0.67 ± 0.049 |
| GTLGYALPTPYE | 0.6736 ± 0.0059 |
| GVGVGDCVRCMV | 0.619 ± 0.008 |
| SLPPSFPPPFLF | 0.7355 ± 0.001 |
| LWGWAGLRCGGF | 0.685 ± 0.032 |
| LSPGLPRLLVKM | 0.669 ± 0.033 |
| ENCPPETLNRGE | 0.686 ± 0.081 |
| PHFLNNRNTIRR | 0.714 ± 0.04 |
| SRKKSKQYRQEK | 0.716 ± 0.039 |
| FRFNPGSCSRPV | 0.681 ± 0.016 |
| IVENSLEEKERR | 0.673 ± 0.056 |
| VYTNAVPLSSNA | 0.817 ± 0.1 |
| SGGIPGSPNVRL | 0.657 ± 0.01 |
| VFGRQVRVNGGS | 0.707 ± 0.043 |
| RGGRLQVGMEAV | 0.6653 ± 0.0022 |
| GQCRTELVGLWE | 0.664 ± 0.13 |
| LSVSRLGFLLRG | 0.684 ± 0.037 |
| WARFRKGEVRSG | 0.748 ± 0.072 |
| AHVDWRLPEPNR | 0.7172 ± 0.0069 |
| PPSPPPPPRPPP | 0.583 ± 0.019 |
| SRTLPHRTAPHC | 0.758 ± 0.054 |
| PPSHPLTIRPPL | 0.663 ± 0.014 |
| GPRGGRLSWAPG | 0.62172 ± 0.00044 |
| VYLVVSSSMDYR | 0.633 ± 0.078 |
| LPPRPGFLSSLP | 0.64 ± 0.082 |
| PSLPDSALRHSL | 0.70673 ± 9.8e-05 |

| Sequence | protein stability index |
| --- | --- |
| PSAGSPAPLLHP | 0.705 ± 0.064 |
| RSLVALSRRLRG | 0.6374 ± 0.0023 |
| GYHRGLSHVLED | 0.694 ± 0.018 |
| LHGRTLENIVVR | 0.6481 ± 0.0044 |
| TSLAPLPAPLRR | 0.725 ± 0.031 |
| SLFLSRRSLYRV | 0.738 ± 0.034 |
| PSSPALIPCRLV | 0.61 ± 0.027 |
| REEGGWGEAWRE | 0.726 ± 0.049 |
| PNRSPPLPRPLM | 0.693 ± 0.0074 |
| PSAFSPPARISL | 0.761 ± 0.066 |
| GGWSGRFVTVGR | 0.713 ± 0.066 |
| PAYTRDIRKPRH | 0.654 ± 0.051 |
| DRSTGVNKSFPS | 0.7 ± 0.074 |
| WEWGCRVEELSG | 0.742 ± 0.0086 |
| GIIDGGTISRNK | 0.692 ± 0.013 |
| PPPAPDRATIRR | 0.673 ± 0.068 |
| CGVSPPHANLVS | 0.569 ± 0.036 |
| FGRAGAGERRGA | 0.722 ± 0.28 |
| IQSRDDTVEGRK | 0.63 ± 0.0095 |
| IINKRYEFRERT | 0.764 ± 0.03 |
| GKRWPSINKGPV | 0.6851 ± 0.0051 |
| LGGWLWSPGVVV | 0.6355 ± 0.0056 |
| SALSKYFLSVRL | 0.633 ± 0.012 |
| RGCRLRCSLPGR | 0.669 ± 0.056 |
| RSLPSSPTPPED | 0.755 ± 0.081 |
| PRGPPPPAPPPT | 0.689 ± 0.0075 |

| Sequence | protein stability index |
| --- | --- |
| LWTASISVAEVR | 0.633 ± 0.012 |
| IKIKKKKKKKRD | 0.665 ± 0.012 |
| QKSCHIADGREL | 0.671 ± 0.022 |
| APSCPKSLTFLD | 0.734 ± 0.035 |
| ARRAPTFFSLWR | 0.658 ± 0.049 |
| AASPHHPSQTAL | 0.6831 ± 0.0063 |
| CFWTSFVWPGCA | 0.684 ± 0.00095 |
| SVDEARSVRCVI | 0.661 ± 0.025 |
| VFRGGGAVGSVR | 0.683 ± 0.043 |
| TASAGLVAAATI | 0.668 ± 0.034 |
| ASKKSVVFKQKT | 0.6586 ± 0.0013 |
| VCNLSRRGLCHG | 0.584 ± 0.11 |
| IRPFSPAPPRYP | 0.722 ± 0.075 |
| PIPSPAPLPPRP | 0.675 ± 0.0073 |
| GGGCRASSLFPE | 0.6644 ± 0.0058 |
| LSYSSLGLRFSY | 0.579 ± 0.02 |
| LLLARDLAHPLI | 0.705 ± 0.015 |
| SPLSPAVPSTAL | 0.742 ± 0.056 |
| AVQESVSHSLVL | 0.723 ± 0.0012 |
| SLRNGESTGLCF | 0.743 ± 0.098 |
| LVQGPLSQDQPI | 0.656 ± 0.029 |
| SACVEQVHLRWF | 0.642 ± 0.092 |
| VLTGLLFRRPRS | 0.604 ± 0.0062 |
| PPPRPPPPPPVP | 0.707 ± 0.041 |
| SPLEFPLLPSGV | 0.7 ± 0.064 |
| SFMPFVLPLSSP | 0.71 ± 0.023 |

| Sequence | protein stability index |
| --- | --- |
| VSAPRLRVSCNP | 0.696 ± 0.014 |
| CTAVGFISFWMA | 0.629 ± 0.081 |
| EKPKEGKNETKK | 0.734 ± 0.042 |
| SSLPALRSPCHP | 0.738 ± 0.06 |
| DIRRWQWWFMVR | 0.613 ± 0.082 |
| RRVRGGAAEKET | 0.723 ± 0.1 |
| SVGFYMLECVDD | 0.688 ± 0.0099 |
| APQTELTGVLFG | 0.685 ± 0.0071 |
| GAWVFLSSRVVH | 0.7227 ± 0.0054 |
| GGAWESGRVEQV | 0.684 ± 0.041 |
| SSLSPPPPLPPW | 0.706 ± 0.075 |
| LQKNKIPTKKKD | 0.647 ± 0.0097 |
| DGGIVTVSLGWC | 0.662 ± 0.064 |
| STHLPPLPATLP | 0.784 ± 0.1 |
| ISEGNNQNLSQT | 0.689 ± 0.011 |
| PPAPSSLTASPF | 0.71 ± 0.08 |
| GDECHSCSSPIA | 0.786 ± 0.13 |
| PDGFTFVFSPES | 0.648 ± 0.038 |
| GVWVASCSGAGI | 0.632 ± 0.033 |
| KTRKKEKKPSRK | 0.6233 ± 0.0036 |
